Data: the supplement of paper PMC10567573
± gives the standard deviation.

Assay: protein stability index of a GFP-peptide fusion (GPS, HEK-293T) (PSI 1-6); higher = more stable
[1] = treatment: DMSO, c terminus: a fixed tail appended
[2] = treatment: MLN4924 1 uM, 8 h, c terminus: a fixed tail appended
[3] = treatment: DMSO, c terminus: native
[4] = treatment: MLN4924 1 uM, 8 h, c terminus: native
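Note: 24-mer peptide tiles fused after GFP, lentivirally expressed, FACS-sorted into six equal bins by GFP/DsRed ratio, decoded by Illumina sequencing, PSI is the read-weighted mean bin number.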

| Sequence | protein stability index [1] | protein stability index [2] | protein stability index [3] | protein stability index [4] |
| --- | --- | --- | --- | --- |
| SISRGRHARTHPQTALLESSCENK [MATN2] | 4.87 ± 0.22 | 4.88 ± 0.27 | – | – |
| SKAFLLQTVDGKHQDLKYISPETM [CDC25B] | 3.22 ± 0.098 | 3.37 ± 0.29 | – | – |
| SKCQRLFRSPSMPCSVIRPILKRL [CDC25B] | 2.85 ± 0.2 | 2.65 ± 0.24 | – | – |
| SKGMSIFLDILRRADKNDDGKLSF [NECAB1] | 2.27 ± 0.12 | 2.33 ± 0.17 | – | – |
| SKLVPAIQNAHKNSTGSGRGKKLM [TPRG1] | 4.6 ± 0.24 | 4.58 ± 0.16 | – | – |
| SKYGRDWERYTAAVPYRLLPGIF [DHCR7] | – | – | 2.87 ± 0.4 | 2.57 ± 0.46 |
| SLDSLDGLSLTDESDSCVSFEAPL [PSD2] | 4.95 ± 0.2 | 4.86 ± 0.23 | – | – |
| SLGKTNVKDDELDAMLKEASGPIN [MYL5] | 5.14 ± 0.26 | 5.35 ± 0.16 | – | – |
| SLGYGFVNYSDPNDADKAINTLNG [ELAVL3] | 3.76 ± 0.22 | 3.98 ± 0.18 | – | – |
| SLKDQERVAEVSRVRVELQEQNGR [LRRC45] | 5.17 ± 0.45 | 4.91 ± 0.26 | – | – |
| SLLFVVMFIPETKGCSLEQISMEL [SLC2A12] | 2.93 ± 0.53 | 3.2 ± 0.13 | – | – |
| SLLRRIKGKLFTWNILKTIALGQM [SLC35F2] | 2.31 ± 0.63 | 2.38 ± 0.23 | – | – |
| SLMPLQKSISPWKSPPQLRQFLPE [DENND6A] | 2.72 ± 0.21 | 2.51 ± 0.52 | – | – |
| SLNRACHQQNKIKDLQKEQKTLQV [CEP70] | 3.53 ± 0.66 | 3.45 ± 0.45 | – | – |
| SLPKRLCLVCGDVASGYHYGVASC [ESRRA] | 2.22 ± 0.28 | 2.43 ± 0.48 | – | – |
| SLQKLSTKLSAQSAQYSQQLQAAR [FCHSD1] | 3.34 ± 0.18 | 3.54 ± 0.22 | – | – |
| SNISRPRDNPMCLKCDLQERLLCP [M1AP] | 2.87 ± 0.095 | 3.05 ± 0.26 | – | – |
| SNSADDETDDPRRYQKYGYIGTHE [OAS1] | 4.99 ± 0.11 | 4.85 ± 0.16 | – | – |
| SPEKEEQYIAQFTSQFLSLQCLQA [PRAME] | 2.84 ± 0.41 | 2.44 ± 0.37 | – | – |
| SPGSPVGEGTGSPPKWQIGEQEFE [ADD1] | 5.35 ± 0.14 | 5.35 ± 0.25 | – | – |
| SPHRKRSDDSDEDEPCAISGKWTF [DLC1] | 4.47 ± 0.22 | 4.51 ± 0.13 | – | – |
| SPLLSQETAGQKPLSVHRPPTSGC [TSPAN10] | 4.4 ± 0.17 | 4.46 ± 0.18 | – | – |

| Sequence | protein stability index [1] | protein stability index [2] | protein stability index [3] | protein stability index [4] |
| --- | --- | --- | --- | --- |
| SPNSTPAKTIDTSPPVDLFATASA [SNAP91] | 4.8 ± 0.18 | 4.67 ± 0.15 | – | – |
| SPSRAPGLRQRASNKVQDSAPVET [HMOX1] | 5.01 ± 0.27 | 5.22 ± 0.2 | – | – |
| SPSVMRLVHTQEPGEWLELLLEPG [ALKBH7] | 2.83 ± 0.23 | 3 ± 0.24 | – | – |
| SPTDIQDSSIIRTTQDLFAINRDT [RHOBTB3] | 4.47 ± 0.15 | 4.67 ± 0.44 | – | – |
| SPTFPALGIGMDSCVIPLRHGGLS [SEPHS2] | 2.98 ± 0.15 | 2.98 ± 0.29 | – | – |
| SQVSMWDQRWQDHQPLLPITDVP [APBB1IP] | – | – | 2.63 ± 0.55 | 3.22 ± 0.51 |
| SRAGGPTTPLSPTRLSRLQEKEEL [LMNB1] | 5.15 ± 0.37 | 5.36 ± 0.15 | – | – |
| SRAPCKVQGLEGIKMAMVACGDAF [NEK8] | 2.27 ± 0.38 | 2.25 ± 0.27 | – | – |
| SRSPLKIVKKPKSMQCKVILLDGS [EPB41L3] | 2.52 ± 0.081 | 2.51 ± 0.29 | – | – |
| SSFFTCNQKCQLRLLKTLETSRSH [ATP23] | 2.44 ± 0.31 | 2.58 ± 0.33 | – | – |
| SSGKVLPKWGWEQLEVTCTPYLKE [POMT2] | 2.64 ± 0.33 | 2.67 ± 0.33 | – | – |
| SSLVWLFSQLYLYSFISLFIYMVL [MCOLN1] | 3.02 ± 0.19 | 3.03 ± 0.68 | – | – |
| SSQDRMFETMAIEIEQLLARLTGV [GOSR1] | 2.52 ± 0.24 | 2.62 ± 0.44 | – | – |
| SSRSSEESSSDSGSSDSEEERATR [BRD3] | 5.06 ± 0.33 | 5.08 ± 0.2 | – | – |
| SSTLVRPIRSRRALPPLRTRSKSD [FAM189A2] | 4.65 ± 0.31 | 4.6 ± 0.084 | – | – |
| STAKKEDINLSVRKLLNRHNIVFG [TRIP13] | 2.5 ± 0.27 | 2.61 ± 0.24 | – | – |
| STESDKPTTGRVYESDSSNHCMLS [C18orf25] | 4.88 ± 0.2 | 4.89 ± 0.32 | – | – |
| STKPSGSPLEEKHDQCKCENLIMF [MATN2] | 3.3 ± 0.15 | 3.41 ± 0.099 | – | – |
| STTTTTHITKTVKGGISETRIEKR [EPB41L3] | 4.86 ± 0.2 | 5.01 ± 0.21 | – | – |
| STWLILHHKVYDLTKFLEEHPGGE [CYB5A] | 2.17 ± 0.29 | 2.21 ± 0.32 | – | – |
| SVEAGGSVHFDGETIEGAPPLWAA [FEM1A] | 4.09 ± 0.15 | 4.12 ± 0.48 | – | – |
| SVFSARDRDPNSLLISCAVSYRGA [TNXB] | 2.4 ± 0.22 | 2.06 ± 0.16 | – | – |

| Sequence | protein stability index [1] | protein stability index [2] | protein stability index [3] | protein stability index [4] |
| --- | --- | --- | --- | --- |
| SVLEQLELQEKQKNEKLISLQEQL [TAF7L] | 4.24 ± 0.25 | 4.19 ± 0.3 | – | – |
| SVRRTRSKIGFGILLSKEPDGVWA [SMAD6] | 2.18 ± 0.12 | 2.3 ± 0.12 | – | – |
| SWEVVRNPLIASSFSLVKLVLRRQ [C22orf31] | 2.52 ± 0.53 | 2.21 ± 0.28 | – | – |
| SWREAKVSWFGSPTTSFLSISKLS [PWWP2B] | 2.15 ± 0.46 | 2.44 ± 0.43 | – | – |
| SWVTDMCKVGASSDPCGQLRPTLL [PNLIPRP1] | 2.14 ± 0.38 | 2.34 ± 0.41 | – | – |
| SYAFPKEFPYRMNHILECEFYLLE [CCNC] | 2.24 ± 0.57 | 2.7 ± 1.1 | – | – |
| TAEMARVLTDSNHVPLQRLSLLVH [FBXO33] | 2.83 ± 0.39 | 2.79 ± 0.096 | – | – |
| TALKKWMFLQLVPSWNGSLKQLLT [GMCL1] | 2.74 ± 0.56 | 2.43 ± 0.43 | – | – |
| TASSSYGKGEGPIWLDNLHCTGNE [LOXL2] | 3.91 ± 0.16 | 3.91 ± 0.25 | – | – |
| TATTAPPALDIFGDLFESTPEVAA [SNAP91] | 4.62 ± 0.29 | 4.71 ± 0.2 | – | – |
| TCSSCLLRAPTISDLLNDQDLLDV [EDARADD] | 2.57 ± 0.29 | 2.56 ± 0.43 | – | – |
| TDGSVLAAGTHDGSVYFWATPRQV [WSB1] | 2.9 ± 0.18 | 2.89 ± 0.37 | – | – |
| TEEEDRIICEAHKVLGNRWAEIAK [MYBL2] | 3.85 ± 0.1 | 3.92 ± 0.46 | – | – |
| TEGFTSGRHYWEVEVGDKTHWAVG [TRIM39] | 2.85 ± 0.44 | 2.93 ± 1.1 | – | – |
| TERLSHQITSRVVSAATQLRHFFL [RTN2] | 4.1 ± 0.17 | 4.08 ± 0.14 | – | – |
| TETEATNSLITAPGEFSDASMSPD [SMAD6] | 5.42 ± 0.2 | 5.28 ± 0.37 | – | – |
| TFDIDPMVVTDCIQVDPPERPPPP [MCOLN1] | 4.69 ± 0.29 | 4.89 ± 0.35 | – | – |
| TFGDHHKDRRFAYGRSDVVVLCFS [RHOBTB1] | 2.38 ± 0.53 | 2.43 ± 0.55 | – | – |
| TFGNSTLALGPGESLPHRLSCLGQ [PLAGL1] | 3.19 ± 0.18 | 3.29 ± 0.18 | – | – |
| TFLPDNFSPAKPKPSKELKPLLGS [MYORG] | 3.52 ± 0.088 | 3.69 ± 0.28 | – | – |
| TGELETLKERCAQDACQAQAREKE [CCDC89] | 5.46 ± 0.31 | 5.39 ± 0.2 | – | – |
| TGNSLNEPEEPSEIPERRDSGVGA [DLC1] | 5.58 ± 0.19 | 5.59 ± 0.26 | – | – |

| Sequence | protein stability index [1] | protein stability index [2] | protein stability index [3] | protein stability index [4] |
| --- | --- | --- | --- | --- |
| TGTKKVTRILDGGNPFLDVPQALS [PSD2] | 3.24 ± 0.36 | 3.4 ± 0.12 | – | – |
| TGTPLVAGSPIRHENAVQGSAVEV [ISL2] | 4.48 ± 0.22 | 4.45 ± 0.18 | – | – |
| THLPKADIFALALTVVCAAGAEPL [WEE1] | 3.6 ± 0.35 | 3.31 ± 0.26 | – | – |
| TIAAIDGLALGGGLELALACDIRV [AUH] | 2.39 ± 1.2 | 2.33 ± 0.59 | – | – |
| TIMSLASLLFVVMFIPETKGCSLE [SLC2A12] | 3.37 ± 0.21 | 3.33 ± 0.83 | – | – |
| TKGEEISVYVKLAGEREDLWAGSK [MIA2] | 3.36 ± 0.6 | 3.83 ± 0.19 | – | – |
| TKSPCESNNKKNDEMQEVPNRVLA [SPANXN3] | 5.22 ± 0.2 | 5.33 ± 0.19 | – | – |
| TLEELLPPNTRVLRVLPNLPCVVQ [PYCR3] | 2.28 ± 0.28 | 2.1 ± 0.38 | – | – |
| TLKIRNSNFYTVAVTSLSSQIQYM [TMEM106C] | 2.23 ± 0.37 | 2.13 ± 0.36 | – | – |
| TLLPWNFFMTATQYFTNRLDMSQN [SLC29A1] | 2.9 ± 0.49 | 2.85 ± 0.37 | – | – |
| TNALIGGPMPMSMPNVMTGTMGMA [CLINT1] | 3 ± 0.16 | 3.03 ± 0.18 | – | – |
| TNEKMLKAVFGKHGPISEVLLIKD [RBMY1A1] | 2.82 ± 0.24 | 2.96 ± 0.15 | – | – |
| TNTLTRIAENGVSERDSEAAKQNH [EHMT1] | 5.41 ± 0.18 | 5.26 ± 0.29 | – | – |
| TPFLTNHGAHKAEKKLFECLTCGK [ZNF263] | 3.32 ± 0.34 | 3.53 ± 0.67 | – | – |
| TPLIQQRARDSPEPGAGLGIGDMA [PSD2] | 4.55 ± 0.24 | 4.37 ± 0.12 | – | – |
| TPRGPDPALLEATGGAAGAGGAGR [KCTD13] | 5.13 ± 0.23 | 5.18 ± 0.21 | – | – |
| TRGHAISILFGFWTSFICDTYIVL [SMIM2] | 2.73 ± 0.4 | 2.78 ± 0.46 | – | – |
| TRHLKRLALMIQSSGNTVLLLILC [TMEM192] | 2.55 ± 0.41 | 2.35 ± 0.29 | – | – |
| TRKHAHHCHKRRTRSCSSASSRSQ [CLK3] | 4.65 ± 0.2 | 4.82 ± 0.19 | – | – |
| TRPSGNNGNRRRRKLRKTVNGDGS [PHTF1] | 4.83 ± 0.2 | 5.03 ± 0.12 | – | – |
| TRRRAVGWWKRLFTLKEEKPKMYF [ARL6IP1] | 2.25 ± 0.39 | 2.11 ± 0.32 | – | – |
| TRVNLSSDTESTDLPSSTPVANSG [DLC1] | 5.05 ± 0.1 | 5.26 ± 0.11 | – | – |
